# Read-outs that look alike come from different tables or passages of the source.
# Tests used:
# [1] = biological target: zebrafish Sts (zfSts, zfSts_tv1) (Danio rerio, UniProt A0ACD6B647); assay: HPLC of released estrone; assay type: biochemical; settings: 5 μM E1-sulfate, 28°C, 15 min, pH 7.0, 10 mM Ca2+; irreversible inhibitor
# human STS [2] = biological target: T1, human STS (Homo sapiens, UniProt P08842); settings: 5 μM E1-sulfate, 37°C, 15 min, pH 7.0, 10 mM Ca2+; irreversible inhibitor
# T1 sequence (P08842 22-583): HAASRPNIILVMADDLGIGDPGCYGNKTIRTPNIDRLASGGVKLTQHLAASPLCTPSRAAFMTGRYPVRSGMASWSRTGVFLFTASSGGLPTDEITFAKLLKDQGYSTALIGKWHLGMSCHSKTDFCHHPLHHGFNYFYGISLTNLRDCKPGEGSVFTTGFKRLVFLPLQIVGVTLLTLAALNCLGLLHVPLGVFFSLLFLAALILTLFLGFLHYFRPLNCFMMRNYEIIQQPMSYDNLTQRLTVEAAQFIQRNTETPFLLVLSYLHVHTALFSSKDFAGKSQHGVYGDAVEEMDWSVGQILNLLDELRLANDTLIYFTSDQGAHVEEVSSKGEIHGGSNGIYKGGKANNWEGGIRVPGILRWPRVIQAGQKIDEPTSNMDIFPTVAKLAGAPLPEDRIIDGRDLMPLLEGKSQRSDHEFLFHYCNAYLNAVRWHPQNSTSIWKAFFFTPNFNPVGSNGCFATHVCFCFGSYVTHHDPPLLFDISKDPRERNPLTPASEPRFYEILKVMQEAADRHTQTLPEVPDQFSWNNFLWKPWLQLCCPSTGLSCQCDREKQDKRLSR
# [3] = biological target: zebrafish Sts (zfSts, zfSts_tv1) (Danio rerio, UniProt A0ACD6B647, I88V/L437F/N388K); assay: HPLC of released estrone; assay type: biochemical; settings: read-out: % inhibition at 0.1 μM
# Chain of zebrafish Sts (zfSts, zfSts_tv1) (Danio rerio, UniProt A0ACD6B647, I88V/L437F/N388K) (A0ACD6B647 21-584, stated change not applied): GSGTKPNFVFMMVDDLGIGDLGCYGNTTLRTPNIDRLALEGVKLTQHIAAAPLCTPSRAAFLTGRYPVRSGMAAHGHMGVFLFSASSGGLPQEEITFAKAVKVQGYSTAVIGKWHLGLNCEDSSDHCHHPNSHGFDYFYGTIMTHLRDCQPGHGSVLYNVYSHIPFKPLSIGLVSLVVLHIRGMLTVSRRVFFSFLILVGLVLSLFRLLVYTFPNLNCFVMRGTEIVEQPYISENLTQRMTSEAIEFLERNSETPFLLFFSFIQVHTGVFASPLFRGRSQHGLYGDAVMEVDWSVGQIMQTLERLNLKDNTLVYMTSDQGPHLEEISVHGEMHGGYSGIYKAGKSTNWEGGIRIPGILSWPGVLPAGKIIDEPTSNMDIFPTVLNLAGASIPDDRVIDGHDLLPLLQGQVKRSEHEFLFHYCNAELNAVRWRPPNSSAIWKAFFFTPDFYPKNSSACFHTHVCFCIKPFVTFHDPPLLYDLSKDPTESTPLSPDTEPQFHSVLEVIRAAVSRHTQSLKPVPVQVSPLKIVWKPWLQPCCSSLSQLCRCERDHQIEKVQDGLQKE
# human STS [4] = biological target: T1, human STS; assay: HPLC of released estrone; assay type: biochemical; settings: 5 μM E1-sulfate, 37°C, 15 min, pH 7.0, 10 mM Ca2+; irreversible inhibitor
# [5] = test system: CC(C)CCC[C@@H](C)[C@H]1CC[C@H]2[C@@H]3CC=C4C[C@@H](OS(=O)(=O)O)CC[C@]4(C)[C@H]3CC[C@]12C; assay: cells, lysate or membranes; settings: 28°C, pH 7.0 Hepes, 10 mM Ca2+, 1 mM DTT, labelled compound
# [6] = test system: CC(=O)[C@H]1CC[C@H]2[C@@H]3CC=C4C[C@@H](OS(=O)(=O)O)CC[C@]4(C)[C@H]3CC[C@]12C; assay: cells, lysate or membranes; settings: 28°C, pH 7.0 Hepes, 10 mM Ca2+, 1 mM DTT, labelled compound
# [7] = test system: [H][C@@]12CC=C3C[C@@H](OS(=O)(=O)O)CC[C@]3(C)[C@@]1([H])CC[C@]1(C)C(=O)CC[C@@]21[H]; assay: cells, lysate or membranes; settings: 28°C, pH 7.0 Hepes, 10 mM Ca2+, 1 mM DTT, labelled compound
# [8] = test system: C[C@]12CC[C@@H]3c4ccc(OS(=O)(=O)O)cc4CC[C@H]3[C@@H]1CCC2=O; assay: cells, lysate or membranes; settings: 28°C, pH 7.0 Hepes, 10 mM Ca2+, 1 mM DTT, labelled compound
# [9] = test system: [H][C@@]12CCc3cc(OS(=O)(=O)O)ccc3[C@@]1([H])CC[C@]1(C)[C@@H](O)CC[C@@]21[H]; assay: cells, lysate or membranes; settings: 28°C, pH 7.0 Hepes, 10 mM Ca2+, 1 mM DTT, labelled compound
# Chain of zebrafish Sts (zfSts, zfSts_tv1) (Danio rerio, UniProt A0ACD6B647) (A0ACD6B647 21-584): as the sequence (A0ACD6B647 21-584, stated change not applied) above
compound,measurement,setting,value
C[C@]12CC[C@@H]3c4ccc(OS(N)(=O)=O)cc4CC[C@H]3[C@@H]1CCC2=O [EMATE],% inhibition at 0.1 μM,[1],EMATE also inhibited the activity zebrafish Sts_tv1 and human STS
same,% inhibition at 0.1 μM,human STS [2],EMATE also inhibited the activity zebrafish Sts_tv1 and human STS
NS(=O)(=O)Oc1ccc2c3c(c(=O)oc2c1)CCCCC3 [STX64],inhibition at 0.1 µM,[3],88.3%
same,% inhibition at 0.1 μM,human STS [4],93%
"zebrafish Sts (zfSts, zfSts_tv1) (Danio rerio; I88V/L437F/N388K)",Km,[5],0.62 ± 0.06 µM
same,Vmax,[5],8.12e-05 µmol/min/mg
same,Km,[6],0.18 ± 0.01 µM
same,Vmax,[6],0.000104 µmol/min/mg
same,Km,[7],19.38 ± 3.07 µM
same,Vmax,[7],0.000374 µmol/min/mg
same,Km,[8],4.32 ± 0.49 µM
same,Vmax,[8],0.00126 µmol/min/mg
same,Km,[9],2.07 ± 0.29 µM
same,Vmax,[9],0.00107 µmol/min/mg

# Reference: publication PMC6289849 (The Journal of steroid biochemistry and molecular biology, 2018)
